Results as given in article doi:10.1101/2023.09.15.558033.
Each block holds one molecule with its values, some of them ahead of it.

Columns and labels:
[1] = molecular target: Hsp60 C-terminal deletion mutant Δ522 (terminal 26 residues removed) (human); assay: cryo-EM structure
[2] = molecular target: Hsp60 C-terminal deletion mutant Δ532 (terminal 16 residues removed) (human)

stoichiometry N [1]: 14
Molecule: Hsp60 C-terminal deletion mutant Δ522 (terminal 26 residues removed) (domain or fragment)

refolding of denatured hMDH (hMDH activity), loss against wild-type Hsp60 [2]: 27%
B1: human malate dehydrogenase (hMDH), acid-denatured (enzyme)
chain: AKVAVLGASGGIGQPLSLLLKNSPLVSRLTLYDIAHTPGVAADLSHIETKAAVKGYLGPEQLPDCLKGCDVVVIPAGVPRKPGMTRDDLFNTNATIVATLTAACAQHCPEAMICVIANPVNSTIPITAEVFKKHGVYNPNKIFGVTTLDIVRANTFVAELKGLDPARVNVPVIGGHAGKTIIPLISQCTPKVDFPQDQLTALTGRIQEAGTEVVKAKAGAGSATLSMAYAGARFVFSLVDAMNGKEGVVECSFVKSQETECTYFSTPLLLGKKGIEKNLGIGKVSSFEEKMISDAIPELKASIKKGEDFVKTLK
